In EP4386000A1 (Nanjing Novoacine Bio-Technology Co., Ltd., dated 2024):
Positions count from the first letter of the chain named. Where two headings read alike, the source gives them in different places. Blank lines part the entries; values can stand above or below the binder they belong to.

Experiments:
[1] = molecular target: T1, human CD25 (NP_000408.1) (Met 1-Cys 213) C-terminally fused with 6-histidine tag (human, UniProt P01589 22-213); test: SPR (BIAcore X100), human CD25-his captured by anti-histidine antibody, antibody as analyte, 1:1 model
T1 construct: range 1-213; Expressed in CHO-K1 cells; also called human CD25-his
T1 sequence: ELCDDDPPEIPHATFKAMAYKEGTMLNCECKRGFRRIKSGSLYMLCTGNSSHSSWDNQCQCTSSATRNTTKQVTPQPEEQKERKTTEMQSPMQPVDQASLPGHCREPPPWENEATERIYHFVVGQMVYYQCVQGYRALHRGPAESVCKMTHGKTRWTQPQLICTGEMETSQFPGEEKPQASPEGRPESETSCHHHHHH

[2] = molecular target: T2, Mouse CD25-his (UniProtKB-P01590, Met1-Lys213) (mouse, UniProt P01590 22-213); test: ELISA, mouse CD25-his coated
T2 construct: range 1-213; Range begins at Met1 (includes the signal peptide); not shown: his tag
T2 sequence (looked up): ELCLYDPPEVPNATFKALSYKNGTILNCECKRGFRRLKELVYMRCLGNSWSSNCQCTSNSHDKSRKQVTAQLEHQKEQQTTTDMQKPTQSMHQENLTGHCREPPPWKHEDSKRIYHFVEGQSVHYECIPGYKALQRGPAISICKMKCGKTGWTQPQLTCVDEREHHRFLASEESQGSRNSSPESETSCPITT

[3] = molecular target: T1, human CD25 (NP_000408.1) (Met 1-Cys …); test: SPR (BIAcore X100), human CD25-his captured by anti-histidine antibody, antibody as analyte, 1:1 model; remark: listed apart in the source
[4] = molecular target: T3, CD25 on CD4+CD25+ Treg cells isolated from human PBMCs (human, UniProt P01589 22-272); test: cell-based or functional assay
T3 sequence (looked up): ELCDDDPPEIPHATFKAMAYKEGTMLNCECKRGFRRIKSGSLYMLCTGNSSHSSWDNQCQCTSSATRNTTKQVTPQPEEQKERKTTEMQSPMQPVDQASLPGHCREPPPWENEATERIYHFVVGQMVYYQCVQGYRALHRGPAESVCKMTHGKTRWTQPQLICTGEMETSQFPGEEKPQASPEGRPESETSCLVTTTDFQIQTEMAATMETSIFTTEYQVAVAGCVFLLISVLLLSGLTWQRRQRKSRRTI

[5] = molecular target: T4, cyno CD25-his (NCBI-H6WS54, Met1-Arg213) (cyno); test: ELISA, cyno CD25-his coated
T4 construct: range 1-213; Range begins at Met1 (includes the signal peptide)

[6] = molecular target: T5, human CD25 on CHO-K1/hCD25 cells (human, UniProt P01589 22-272); test: flow cytometry on CHO-K1/hCD25 cells
T5 construct: whole, on cells; The construct of the cell line is not described
T5 sequence (looked up): T3 sequence (looked up)

[7] = molecular target: T1, human CD25 (NP_000408.1) (Met 1-Cys …); test: ELISA, human CD25-his coated

- Kd [1]: 1.43 nM
- koff [1]: 0.000498 s⁻¹
- kon [1]: 348000 M⁻¹ s⁻¹
B1: humanized antibody 2047-3H1L2 (antibody, human IgG1, kappa, V domains shown)
VH: EVQLVQSGAEVKKPGATVKISCKTSGYTFTDYVISWVQQAPGKGLEWMGEIYPGSGSTYYNEKFKGRVTITADISTNTAYMELSSLRSEDTAVYYCASINFDYWGQGTLVTVSS
VL: EIVMTQSPATLSLSPGERATLSCRASQSISDYLHWYQQKPGQAPRLLIKYASQSISGIPARFSGSGSGSDFTLTISSLQPEDVAVYYCQSGHSFPYTFGQGTKLEIKR

- Kd [3]: 0.819 nM
- koff [3]: 0.000431 s⁻¹
- kon [3]: 526000 M⁻¹ s⁻¹
- EC50 [5]: 0.0447 mg/L
- EC50 [6]: 0.00109 mg/L
- Relative activity (%) compared with 686 [6]: 132%
- EC50 [7]: 0.0989 mg/L
- Relative activity (%) compared with 686 [7]: 105%
B2: chimeric antibody 2046-111H2L1 (antibody, human IgG1, kappa, V domains shown)
VH: DVQLQESGPGLVKPSQSLSLTCTVTGHSITSDYAWNWIRQFPGNKLEWMGYISYSGSTIYNPSLKSRISITRDTSKNQFFLQLNSVTTEDTATYYCARWLLQNYYAMDYWGQGTSVTVSS
VL: DVVMTQTPLSLPVSLGDQASISCRSSQSLVHSNGNTYLHWYLRKPGQSPKLLIYKVSNRFSGVPDRFSGSGSGTDFTLKISRVEAEDLGVYFCSQSTHVPLTFGAGTKLELKR
notes: Chimeric, human IgG1/kappa
- binding result [2]: no binding (tested: starting at 100 ng/mL)
- EC50, killing Tregs in vitro (ADCC reporter, jurkat/CD16a/NFAT-luc) [4]: 89.8 mg/L
- Relative activity (%) compared with 686, killing Tregs in vitro [4]: 145%

- Kd [3]: 4.27 nM
- koff [3]: 0.00318 s⁻¹
- kon [3]: 745000 M⁻¹ s⁻¹
- EC50 [5]: 0.0594 mg/L
- EC50 [6]: 0.00192 mg/L
- Relative activity (%) compared with 686 [6]: 63.8%
- EC50 [7]: 0.105 mg/L
- Relative activity (%) compared with 686 [7]: 99%
B3: chimeric antibody 2046-2H1L1 (antibody, human IgG1, kappa, V domains shown)
VH: B2 VH with H27Y, Q40H, S53T, I59V, Q78H, N103I
VL: B2 VL with R43Q
notes: Chimeric (murine V, human IgG1/kappa); also called 2046-2ix
- binding result [2]: no binding (tested: starting at 100 ng/mL)
- EC50, killing Tregs in vitro (ADCC reporter, jurkat/CD16a/NFAT-luc) [4]: 22.2 mg/L
- Relative activity (%) compared with 686, killing Tregs in vitro [4]: 584%

- Kd [3]: 0.703 nM
- koff [3]: 0.000326 s⁻¹
- kon [3]: 463000 M⁻¹ s⁻¹
- EC50 [5]: 0.0483 mg/L
- EC50 [6]: 0.00171 mg/L
- Relative activity (%) compared with 686 [6]: 110%
- EC50 [7]: 0.102 mg/L
- Relative activity (%) compared with 686 [7]: 102%
B4: chimeric antibody 2046-18H1L1 (antibody, human IgG1, kappa, V domains shown)
VH: B2 VH with H27Y, S57I, N103I
VL: B2 VL with R24S, R43H
notes: Chimeric, human IgG1/kappa; also called 2046-18ix
- binding result [2]: no binding (tested: starting at 100 ng/mL)
- EC50, killing Tregs in vitro (ADCC reporter, jurkat/CD16a/NFAT-luc) [4]: 31.7 mg/L
- Relative activity (%) compared with 686, killing Tregs in vitro [4]: 410%

- Kd [3]: 7.63 nM
- koff [3]: 0.00349 s⁻¹
- kon [3]: 458000 M⁻¹ s⁻¹
- EC50 [5]: 0.0424 mg/L
- EC50 [6]: 0.00143 mg/L
- Relative activity (%) compared with 686 [6]: 131%
- EC50 [7]: 0.106 mg/L
- Relative activity (%) compared with 686 [7]: 98.2%
B5: chimeric antibody 2046-24H2L1 (antibody, human IgG1, kappa, V domains shown)
VH: B2 VH with H27Y, S55G, S57T
VL: B2 VL with R43Q, L51V, S96N
notes: Chimeric, human IgG1/kappa; also called 2046-24ix
- binding result [2]: no binding (tested: starting at 100 ng/mL)
- EC50, killing Tregs in vitro (ADCC reporter, jurkat/CD16a/NFAT-luc) [4]: 26.5 mg/L
- Relative activity (%) compared with 686, killing Tregs in vitro [4]: 491%

- Kd [3]: 9.44 nM
- koff [3]: 0.0121 s⁻¹
- kon [3]: 1.28e+06 M⁻¹ s⁻¹
- EC50 [5]: 0.0601 mg/L
- EC50 [6]: 0.00114 mg/L
- Relative activity (%) compared with 686 [6]: 107%
- EC50 [7]: 0.144 mg/L
- Relative activity (%) compared with 686 [7]: 72.2%
B6: chimeric antibody 2046-61H1L2 (antibody, human IgG1, kappa)
heavy: not shown
light: DVVMTQTPLSLPVSLGDQASISCRSSQSLVHSNGNTYLHWNLQKPGQSPKLLIYKVSNRFSGVPDRFSGSGSGTDFTLKISRVEAEDLGVYFCSQSTHVPLTFSAGTKLELKRTVAAPSVFIFPPSDEQLKSGTASVVCLLNNFYPREAKVQWKVDNALQSGNSQESVTEQDSKDSTYSLSSTLTLSKADYEKHKVYACEVTHQGLSSPVTKSFNRGEC
notes: Chimeric, human IgG1/kappa; also called 2046-61ix
- binding result [2]: no binding (tested: starting at 100 ng/mL)
- EC50, killing Tregs in vitro (ADCC reporter, jurkat/CD16a/NFAT-luc) [4]: 34.1 mg/L
- Relative activity (%) compared with 686, killing Tregs in vitro [4]: 380%

- Kd [1]: 0.994 nM
- koff [1]: 0.00394 s⁻¹
- kon [1]: 3.96e+06 M⁻¹ s⁻¹
B7: humanized antibody 2046-36H1L1 (antibody, human IgG1, kappa, V domains shown)
VH: EIQLVQSGSELKKPGASVKVSCKASGYTFTTAGMQWVRQAPGQGLEWMGWINTHSGVPKYAEDFKGRFVFSLDTSVSTAYLQISSLKAEDTAVYYCASDYAFGYWGQGTLVTVSS
VL: DVVMTQSPLSLPVTLGQPASISCKSSQSLLYSNGKTYLYWLQQRPGQSPRRLIYLVSKLDSGVPDRFSGSGSGTDFTLKISRVEAEDLGVYYCVQGTHFPYTFGQGTKLEIKR

- Kd [1]: 6.35 nM
- koff [1]: 0.00414 s⁻¹
- kon [1]: 652000 M⁻¹ s⁻¹
B8: humanized antibody 2046-111H1L1-m2 (antibody, human IgG1, kappa, V domains shown)
VH: EVQLQESGPGLVKPSQTLSLTCTVSGHSITSDYAWNWIRQPPGKGLEWIGYISYSGSTIYNPSLKSRVTISRDTSKNQFSLKLSSVTAADTAVYYCARWLLQNYYAMDYWGQGTLVTVSS
VL: EIVLTQSPGTLSLSPGERATLSCRSSQSLVHSNGNTYLHWYQQKPGQAPRLLIYKVSNRFSGIPDRFSGSGSGTDFTLTISRLEPEDFAVYYCSQSTHVPLTFGQGTKLEIKR

- Kd [3]: 0.308 nM
- koff [3]: 7.26e-05 s⁻¹
- kon [3]: 236000 M⁻¹ s⁻¹
- EC50 [5]: 0.189 mg/L
- EC50 [6]: 0.00143 mg/L
- Relative activity (%) compared with 686 [6]: 205%
- EC50 [7]: 0.111 mg/L
- Relative activity (%) compared with 686 [7]: 93.6%
B9: chimeric antibody 2047-3H8L2 (antibody, human IgG1, kappa, V domains shown)
VH: QVQLKQSGAELVKPGASVKMSCKTSGYTFTDYVISWVKQRTGQGLEWIGEIYPGSGSTYYNEKFKGKATLTADISSNTAYMQLSSLTSEDSAVYFCASINFDYWGHGTTLTVSS
VL: DIVMTQSPATLSVTPGDRVSLSCRASQSISDYLHWYQQKSHESPRLLIKYASQSISGIPSRFSGSGSGSDFTLSINSVEPEDVGVYYCQNGHSFPYTFGGGTKLEIKR
notes: Chimeric, human IgG1/kappa; also called 2047-3ix
- binding result [2]: no binding (tested: starting at 100 ng/mL)
- EC50, killing Tregs in vitro (ADCC reporter, jurkat/CD16a/NFAT-luc) [4]: 857 mg/L
- Relative activity (%) compared with 686, killing Tregs in vitro [4]: 15.2%

- Kd [3]: 15.5 nM
- koff [3]: 0.0122 s⁻¹
- kon [3]: 788000 M⁻¹ s⁻¹
- EC50 [5]: 2.6 mg/L
- EC50 [6]: 0.00246 mg/L
- Relative activity (%) compared with 686 [6]: 120%
- EC50 [7]: 0.186 mg/L
- Relative activity (%) compared with 686 [7]: 56%
B10: chimeric antibody 2047-10H1L2 (antibody, human IgG1, kappa, V domains shown)
VH: QVQLQQSGPELVRPGVSVKISCKGSGYTFTDYAMHWVKQSHAKSLEWIGVISTYNGNTNYNQKFKGKATMTVDKSSSTAYMELARLTSEDSAIYYCARSYGNYPFDYWGQGTTLTVSS
VL: DIKMTQSPSSMYASLGERVTITCKASQDINSYLSWFQQKPGKSPKTLIYRANRLVDGVPSRFSGSGSGQDYSLTISSLEYEDMGIYYCLQYDEFPYTFGGGTKLEIKR
notes: Chimeric, human IgG1/kappa; also called 2047-10ix
- binding result [2]: no binding (tested: starting at 100 ng/mL)
- EC50, killing Tregs in vitro (ADCC reporter, jurkat/CD16a/NFAT-luc) [4]: 41.4 mg/L
- Relative activity (%) compared with 686, killing Tregs in vitro [4]: 314%

- Kd [1]: 4.46 nM
- koff [1]: 0.00205 s⁻¹
- kon [1]: 461000 M⁻¹ s⁻¹
B11: humanized antibody 2047-10H2L2 (antibody, human IgG1, kappa, V domains shown)
VH: EVQLVQSGAEVKKPGATVKISCKGSGYTFTDYAMHWVQQAPGKGLEWMGVISTYSGNTNYNQKFKGRVTITVDKSTSTAYMELSSLRSEDTAVYYCARSYGNYPFDYWGQGTLVTVSS
VL: DIQMTQSPSSLSASVGDRVTITCKASQDITSYLSWFQQKPGKAPKTLIYRANRLVDGVPSRFSGSGSGQDYTLTISSLQPEDMATYYCLQYDEFPYTFGQGTKLEIKR
